In the RNAGym collection of RNA variant scans (doi:10.7554/elife.80360):

B1: Hairpin Ribozyme (parent)
chain: GUCCUCUUUCACGUGCGCGUGAAAGAGAGAAGUGAACCAGAGAAACACACGUUGUGGUAUAUUACCUGGUA

Variants of: B1
Assay: self-cleavage, relative activity (ratio to wild type); higher = more cleavage; co-transcriptional

Variant | self-cleavage
GUCCUCUUUCACGUGCGGGUGAAAGAGAGAAGUGAACCAGAGAAACACACGUUGUGGUAUAUUACCUGGCA [C18G U70C] | 0.881
GUCCUCUUUCACGUGCGUGUGAAAGAGAGAAGUGAACCAGAGUAACACACGUUGUGGUAUAUUACCUGGUA [C18U A43U] | 0.102
GUCCUCUUUCACGUGCGUGUGAAAGAGAGAAGUGAACCAGAGAAACACACGUAGUGGUAUAUUACCUGGUA [C18U U53A] | 1
GUCCUCUUUCACGUGCGUGUGAAAGAGAGAAGUGAACCAGAGAAACACACGUGGUGGUAUAUUACCUGGUA [C18U U53G] | 0.644
GUCCUCUUUCACGUGCGUGUGAAAGACAGAAGUGAACCAGAGAAACACACGUUGUGGUAUAUUACCUGGUA [C18U G27C] | 0.228
GUCCUCUUUCACGUGCGUGUGAAAGAGAGAAGUGAACCAGAGAAAUACACGUUGUGGUAUAUUACCUGGUA [C18U C46U] | 0.195
GUCCUCUUUCACGUGCGGGUGAAAGAGAGAAGUGAACCAGAGAAACACACGUUGUGGUAUAUUACCUGCUA [C18G G69C] | 0.205
GUCCUCUUUCACGUGCGGGUGAAAGAGAGAAGUGAACCAGAGAAACACACGUUGUGGUAUAGUACCUGGUA [C18G U62G] | 0.163
GUCCUCUUUCACGUGCGUGUGAAAGAGAGAAGUGAACCAGAGAAACACACGUUGUGGUCUAUUACCUGGUA [C18U A59C] | 0.237
GUCCUCUUUCACGUGCGUGUGAAAGAGAGAAGUGAACCAGAGAAACACACGUUGUGGUUUAUUACCUGGUA [C18U A59U] | 0.176
GUCCUCUUUCACGUGCGUGUGAAAGAGAGAAGUGAACCAAAGAAACACACGUUGUGGUAUAUUACCUGGUA [C18U G40A] | 0.265
GUCCUCUUUCACGUGCGUGUGAAAGAGAGAAGUGAACCAUAGAAACACACGUUGUGGUAUAUUACCUGGUA [C18U G40U] | 0.244
GUCCUCUUUCACGUGCGUGUGAAAGAGAGAAGUGAACCAGAGAAACACACGUUGGGGUAUAUUACCUGGUA [C18U U55G] | 0.382
GUCCUCUUUCACGUGCGUGUGAAAGAGAGAAGUGAACCAGAGAAACAAACGUUGUGGUAUAUUACCUGGUA [C18U C48A] | 0.134
GUCCUCUUUCACGUGCGUGUGAAAGAGAGAAGUGAACCAGAGAAACAUACGUUGUGGUAUAUUACCUGGUA [C18U C48U] | 0.0571
GUCCUCUUUCACGUGCGGGUAAAAGAGAGAAGUGAACCAGAGAAACACACGUUGUGGUAUAUUACCUGGUA [C18G G21A] | 0.767
GUCCUCUUUCACGUGCGGGAGAAAGAGAGAAGUGAACCAGAGAAACACACGUUGUGGUAUAUUACCUGGUA [C18G U20A] | 0.772
GUCCUCUUUCACGUGCGGGUGAAAGAGAGAAGUGAACCAGAGAAACACACGUUGGGGUAUAUUACCUGGUA [C18G U55G] | 0.311
GUCCUCUUUCACGUGCGUGUGAAAGAGAGAAUUGAACCAGAGAAACACACGUUGUGGUAUAUUACCUGGUA [C18U G32U] | 0.118
GUCCUCUUUCACGUGCGUGUGAAAGAGAGAAAUGAACCAGAGAAACACACGUUGUGGUAUAUUACCUGGUA [C18U G32A] | 0.124
GUCCUCUUUCACGUGCGUGUGAAAGAGAGAAGUGAACCAGAGAAACACACGUUGUGGUAUAUUAUCUGGUA [C18U C65U] | 0.373
GUCCUCUUUCACGUGCGUGUGAAAGAGAGACGUGAACCAGAGAAACACACGUUGUGGUAUAUUACCUGGUA [C18U A31C] | 0.0854
GUCCUCUUUCACGUGCGUGUGAAAGAGAGAGGUGAACCAGAGAAACACACGUUGUGGUAUAUUACCUGGUA [C18U A31G] | 0.721
GUCCUCUUUCACGUGCGUGUGAAAGAGAGAUGUGAACCAGAGAAACACACGUUGUGGUAUAUUACCUGGUA [C18U A31U] | 0.112
GUCCUCUUUCACGUGCGUGUGAAAGAGAGAAGUGAACCAGAGAAACACAUGUUGUGGUAUAUUACCUGGUA [C18U C50U] | 0.326
GUCCUCUUUCACGUGCGGGUGAAAGAGAGAAGUGAACCAGAGAAACACACGUUGUGGUAUAUUACCGGGUA [C18G U67G] | 0.275

Variant | self-cleavage
GUCCUCUUUCACGUGCGUGUGAAAGAGAGAAGUGAACCAGAGAAACACACGUUGUGGUAUAUUACCUGGUG [C18U A71G] | 1.09
GUCCUCUUUCACGUGCGUGUGAAAGAGAGAAGUGAACCAGAGAAACACACGUUGUGGUAUAUUACCUGGUC [C18U A71C] | 1.33
GUCCUCUUUCACGUGCGUGUGAAAGAGAGAAGUGAACCAGAGAAACACACGUUGUGGUAUCUUACCUGGUA [C18U A61C] | 0.17
GUCCUCUUUCACGUGCGUGUGAAAGAGAGAAGUGAACCAGAGAAACACACGUUGUGGUAUUUUACCUGGUA [C18U A61U] | 0.22
GUCCUCUUUCACGUGCGGGUGAAAGAGAGAAGUGAACCAGAGAAACACACGUUGUCGUAUAUUACCUGGUA [C18G G56C] | 0.176
GUCCUCUUUCACGUGCGGGUGAAAGAGAGAAGUGAACCAGAGAAACACACGUUGUAGUAUAUUACCUGGUA [C18G G56A] | 0.14
GUCCUCUUUCACGUGCGUGUGAAAGAGAGAAGUGAACCAGGGAAACACACGUUGUGGUAUAUUACCUGGUA [C18U A41G] | 1.04
GUCCUCUUUCACGUGCGGGUGAAAGAGAGAAGUGAACCAGACAAACACACGUUGUGGUAUAUUACCUGGUA [C18G G42C] | 0.255
GUCCUCUUUCACGUGCGUGUGAAAGAGAGAAGUGAACGAGAGAAACACACGUUGUGGUAUAUUACCUGGUA [C18U C38G] | 0.158
GUCCUCUUUCACGUGCGUGUGAAAGAGAGAAGUGAACCUGAGAAACACACGUUGUGGUAUAUUACCUGGUA [C18U A39U] | 0.429
GUCCUCUUUCACGUGCGUGUGAAAGAGAGAAGUGAACCCGAGAAACACACGUUGUGGUAUAUUACCUGGUA [C18U A39C] | 0.66
GUCCUCUUUCACGUGCGUGUGAAAGUGAGAAGUGAACCAGAGAAACACACGUUGUGGUAUAUUACCUGGUA [C18U A26U] | 0.59
GUCCUCUUUCACGUGCGUGUGAAAGGGAGAAGUGAACCAGAGAAACACACGUUGUGGUAUAUUACCUGGUA [C18U A26G] | 0.975
GUCCUCUUUCACGUGCGGGUGAAAGAGAGAAGUGAACCAGAGAAACACACGUUGUGGUAUAUUACCUUGUA [C18G G68U] | 0.171
GUCCUCUUUCACGUGCGGGUGAAAGAGAGAAGUGAACCAGAGAAACACACGUUGUGUUAUAUUACCUGGUA [C18G G57U] | 0.243
GUCCUCUUUCACGUGCGGGUGAAAGAGAGAAGUGAACCAGAGAAACACACGUUGUGAUAUAUUACCUGGUA [C18G G57A] | 0.118
GUCCUCUUUCACGUGCGGGUGAAAGAGAGAAGUGAACCAGAGAAACACACGUUUUGGUAUAUUACCUGGUA [C18G G54U] | 0.449
GUCCUCUUUCACGUGCGGGUGAAAGAGAGAAGUGAACCAGAGAAACACACGUUAUGGUAUAUUACCUGGUA [C18G G54A] | 0.51
GUCCUCUUUCACGUGCGGGUGAAAGAGAGAAUUGAACCAGAGAAACACACGUUGUGGUAUAUUACCUGGUA [C18G G32U] | 0.1
GUCCUCUUUCACGUGCGGGUGAAAGAGAGAAAUGAACCAGAGAAACACACGUUGUGGUAUAUUACCUGGUA [C18G G32A] | 0.154
GUCCUCUUUCACGUGCGUGUGAAAGAGAGAAGUGAACCAGAGACACACACGUUGUGGUAUAUUACCUGGUA [C18U A44C] | 0.146
GUCCUCUUUCACGUGCGUGUGAAAGAGAGAAGUGAACCAGAGAAACACACGUUAUGGUAUAUUACCUGGUA [C18U G54A] | 0.695
GUCCUCUUUCACGUGCGUGUGAAAGAGAGAAGUGAACCAGAGAAACACACGUUUUGGUAUAUUACCUGGUA [C18U G54U] | 0.702
GUCCUCUUUCACGUGCGGGUGAAAGACAGAAGUGAACCAGAGAAACACACGUUGUGGUAUAUUACCUGGUA [C18G G27C] | 0.0884
GUCCUCUUUCACGUGCGGGUGAAAGAGAGAAGUGAACCAGAGAAACACACGAUGUGGUAUAUUACCUGGUA [C18G U52A] | 0.833
GUCCUCUUUCACGUGCGGGUGAAAGAGAGAAGUGAACCAGAGAAACACACGCUGUGGUAUAUUACCUGGUA [C18G U52C] | 1.04

Variant | self-cleavage
GUCCUCUUUCACGUGCGGGUGAAAAAGAGAAGUGAACCAGAGAAACACACGUUGUGGUAUAUUACCUGGUA [C18G G25A] | 0.578
GUCCUCUUUCACGUGCGGGUGAAAGAGAAAAGUGAACCAGAGAAACACACGUUGUGGUAUAUUACCUGGUA [C18G G29A] | 0.133
GUCCUCUUUCACGUGCGUGUGAAAGAGAGAAGUGAACCAGAGAAACACACGUUGUGGUAUAUUACGUGGUA [C18U C66G] | 0.202
GUCCUCUUUCACGUGCGUAUGAAAGAGAGAAGUGAACCAGAGAAACACACGUUGUGGUAUAUUACCUGGUA [C18U G19A] | 1.08
GUCCUCUUUCACGUGCGUGUGAAAGAGAGAAGUGAACCAGAGAAACACACGAUGUGGUAUAUUACCUGGUA [C18U U52A] | 1.09
GUCCUCUUUCACGUGCGUGUGAAAGAGAGAAGUGAACCAGAUAAACACACGUUGUGGUAUAUUACCUGGUA [C18U G42U] | 0.407
GUCCUCUUUCACGUGCGGGUGAAAGAGAGAAGUGAACCAGAGAAACACACGUUGUGGCAUAUUACCUGGUA [C18G U58C] | 0.802
GUCCUCUUUCACGUGCGUGUGAAAGAGAGAAGUGAACCAGAGAAACACGCGUUGUGGUAUAUUACCUGGUA [C18U A49G] | 0.567
GUCCUCUUUCACGUGCGUGUGAAAGAGAGAAGUGAACCAGAGAAACACCCGUUGUGGUAUAUUACCUGGUA [C18U A49C] | 0.193
GUCCUCUUUCACGUGCGUGGGAAAGAGAGAAGUGAACCAGAGAAACACACGUUGUGGUAUAUUACCUGGUA [C18U U20G] | 1.13
GUCCUCUUUCACGUGCGGGUGAAAGAGAGAAGUCAACCAGAGAAACACACGUUGUGGUAUAUUACCUGGUA [C18G G34C] | 1.17
GUCCUCUUUCACGUGCGGGUGAAAGAGAGAAGUUAACCAGAGAAACACACGUUGUGGUAUAUUACCUGGUA [C18G G34U] | 1.32
GUCCUCUUUCACGUGCGUGUGAAAGAGAGAAGUCAACCAGAGAAACACACGUUGUGGUAUAUUACCUGGUA [C18U G34C] | 1.44
GUCCUCUUUCACGUGCGUGUGAAAGAGAGAAGUGAACCAGAGAAACACACGUUGUUGUAUAUUACCUGGUA [C18U G56U] | 0.115
GUCCUCUUUCACGUGCGUGUGAAAGAGAGAAGUGAACCAGAGAAACACACGUUGUCGUAUAUUACCUGGUA [C18U G56C] | 0.179
GUCCUCUUUCACGUGCGUGUGAAAGAGAGAAGUGAAUCAGAGAAACACACGUUGUGGUAUAUUACCUGGUA [C18U C37U] | 0.713
GUCCUCUUUCACGUGCGGGUGAAAGAGAGAAGUGAACCAGAGAAACACACGUUGUGGUAGAUUACCUGGUA [C18G U60G] | 0.483
GUCCUCUUUCACGUGCGGGUGAAAGAGAGAAGUGAACCAGAGAAACACACGUUGUGGUACAUUACCUGGUA [C18G U60C] | 1.02
GUCCUCUUUCACGUGCGGGUGAAAGAGAGAAGUGAACCAGAGAAACACACGUUGUGGUAAAUUACCUGGUA [C18G U60A] | 0.9
GUCCUCUUUCACGUGCGUGUCAAAGAGAGAAGUGAACCAGAGAAACACACGUUGUGGUAUAUUACCUGGUA [C18U G21C] | 0.883
GUCCUCUUUCACGUGCGUGUAAAAGAGAGAAGUGAACCAGAGAAACACACGUUGUGGUAUAUUACCUGGUA [C18U G21A] | 0.833
GUCCUCUUUCACGUGCGUGUUAAAGAGAGAAGUGAACCAGAGAAACACACGUUGUGGUAUAUUACCUGGUA [C18U G21U] | 0.814
GUCCUCUUUCACGUGCGUGUGAAAGAGAAAAGUGAACCAGAGAAACACACGUUGUGGUAUAUUACCUGGUA [C18U G29A] | 0.194
GUCCUCUUUCACGUGCGUGUGAAAGAGAGAAGUGAACCAGAGAAACUCACGUUGUGGUAUAUUACCUGGUA [C18U A47U] | 0.178
